The assay deals with DexA (bacteriophage T4). Description: SEC; Äkta pure, HiLoad 16/600 Superdex 75 pg (Cef, MRH, Pin, DexA) or Superdex 200 pg (Y04L, Gp57B), in the respective dialysis buffers (Supplementary Table 3). (SEC sorts molecules by how far they enter the pores of the column.)

Sequence of DexA (P04536 whole entry): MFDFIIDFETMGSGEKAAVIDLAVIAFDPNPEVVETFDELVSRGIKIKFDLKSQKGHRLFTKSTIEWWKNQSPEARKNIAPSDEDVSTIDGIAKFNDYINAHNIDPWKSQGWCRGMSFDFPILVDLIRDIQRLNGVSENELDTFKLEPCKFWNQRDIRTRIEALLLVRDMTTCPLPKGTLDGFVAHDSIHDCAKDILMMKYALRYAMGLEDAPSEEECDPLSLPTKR

Consider DexA (enzyme), for which the stoichiometry N turned out to be 2.

By stoichiometry N is commonly meant the number of molecules, sites or subunits per partner or assembly.

The values above are taken from paper PMC8076793.
